Earlier results as cited in paper PMC8894873.

Biological target: Glu66 (UniProt position 148, FTKKMEENAKK)
Assay: stability (inferred; the article mentions only a pH dependence of stability)

Staphylococcal nuclease V66E variant (Staphylococcus aureus; V66E)
pKa: 8.8
